Test results published in a protein production outcome set (Wang et al. 2014).

Test: label from the status in PepcDB records

Sequence	protein production
MKLLLLLIIALEISFTTIVSLNVALIILALIYLLGHRTRLRTLGWLLLIPLLPAIGLWSTQYINGSGDKTLMAWVLFTRIYAFVFTGATFTLTTDVLQLTDSLEQNWHLPAKFAYGVLAAYNLVPRIQHEVQVIRAAGLMRGQVLSFWSPQLYFKAILVSINWSQNLARAMRSHGFVEDAPRTHYRQIPLTKLDWTIVISGVLLLQVGAFVIPWR	failed
MMKKSATTSSACNGCPAHSGNKLRRMGTDAERYDFTIALAGNPNTGKSTVFNALTGLKQHTGNWPGKTVEKAEGAFSYAGSSYKIVDLPGTYSLLSTSEDEEIARDFILFGKPDVTLIVADATRLERNMNLILQILEITDRAVLCANLMDEAERNGVEIDLRGLSRRLGIPVVGASARSGEGISDLLSALSEVAQGIYRCTPHRLTSIGTEIDTRIDSLAESIRLFHPDTPNSRWLALRLTEGDRRVENILYADNEAPAEKLKKEVDEFRRNFGEDLHDQLSEALYSDAGKICQEVITQANKRGRTPLDIKIDRIVTSRKWGFPIMLLMLALVLWITIVGSNYPSQWLSDSLVGILHPLLKTRATGFLPDWLSGFLIDGVYLATAWVVSVMLPPMAIFFPLFTLLEDFGFLPRVAFNLDELFRRSGAHGKQALTMTMGFGCNAAAIINTRIIDSQRERLIAILTNNFSLCNGRWPTQILLATIFLTPAVPAYLRGVIGIGSVVAIALLGIAFMFFFSWVLSRTLLRGQVSTFNLELPPYRPPQFWQTIYKSIVDRTLVVLWRAVVFAAPAGALIWLTCNIQIGGVGIAEYLIDLLDGPGWLMGLNGVILLAYVLAIPANEIVIPTILMLTVLTTGIDGGTGAGVMFEADGTAETARLFEAGGWTMLTGINLMLFCLLHNPCSTTLFNIYKETGSRKWTLLAALIPLATGFVVTVAVAFVWRLVGG	failed
MDLCRSSILLLIIALLSPRTLSMRYELKSSKTKCIGEEIHENAMSIGKYFIVNPNEDNHPLPDSHKIIVKVMPPQGKNLHEADKVEAGQFSFTAYENGSYVACITAIDYKPETTLTIDFDWKTGVHSKEWTNVAKKSQVDMMEYQVKTLMDTVISIHEEMYYLREREEEMQELNRSTNSKMAWLSFGSLVVCLSVAGLQFWHLKTFFEKKKLI	failed
MGEVWTWIISFLILITLLGLIVYQLISLADLEFDYINPYDSASRINFVVLPESILQGFLCVFYLVTGHWFMALLCVPYLYYNFHLYSRKQHLIDVTEIFNLLDWEKKKRLFKLAYIILTLFLTIFWLIYSTLDDYED	failed
MHEIFTMMLAVYDRAALMLICLFFLIRLRLFRELLHKSAHTPKELLAVTAIFSLFALFSTWSGVPVEGSLVNVRIIAVMSGGILFGPWVGAIVGAIAGVHRYLIDIDGVTAVPCFITSIVAGLLSGLINRKVAREQRWKIGILAGMMCETLTMILVVVWAPSLSLGVDIVSKIGIPMILGSVCIGFIVLLVQSVEGEKEASAARQAKLALDIANKTLPLFRHVNSDSLRQVCEIIRRDITADAVAITNTEHVLAYVGVGEANYQRHDDMISPTTRQAIRYGKIIIKNNDEAHRTPEIHSLMVIPLWEKGVVTGTLKIYYCHAHRITSTLQEMAIGLSQIISTQLEVSRAEQLREMANKAELRALQSKINPHFLFNALNAISSSIRLNPDTARQLIFNLSRYLRYNIELKDDEQIDIKRELYQIKDYIAIEQARFGDKLTVIYDIDDDVSCVIPSLLIQPLVENAIVHGIQPCKGKGVVTIGINECGNRVRISVRDTGNGIDPAVVARVEADEMPGNKIGLLNVHHRVKLLYGEGLHIRNLTPGTEIAFYVPNNSTPQALTESLLS	failed
MDPAEMRYLEEEDGPLMKTIKGSITGFGAGTIYGTILATWKDVPRVERNVALPGLIRTLKMMGTHGLTFAAIGGVYIGVEQLVQNFRSKRDFYNGAIGGFVAGASVLGYRARSIPTAIAAGATLAVTSALIDSGGQTTRVDNGREYYPYTVEKRAEADS	not failed
MRYIKFFKELNNKNVNLVGGKNASIGEMFQELVPIGIKVPDGFAITSEAYWYLLEQGGAKQKIIELLENVDATEIDVLKIRSKQIRELIFGTPFPSDLRDEIFQAYEILSQQYHMKEADVAVRSSATAEDLPDASFAGQQDTYLNIKGKTELIHYIKSCLASLFTDRAISYRASRGFDHLKVALSVGVQKMVRADKGSAGVMFSIDTETGFKDAVFITSAWGLGENVVGGTINPDEFYVFKPTLEQNKRPIIKRQLGNKTQKMVYAPRGSEHPTRNIKTTKKEWQSFSLSDEDVLILAKYAIEIEKHYSKEAKQYRPMDIEWAKDGESGEIFIVQARPETVQSQKSKEESQVFEKFKFKNPNEKKEIILQGRAIGSKIGSGKVRIINDLEHMNSFKEGEILVTDNTDPDWEPCMKKASAVITNRGGRTCHAAIVAREIGVPAIVGVSGATDSLYTGMEITVSCAEGEEGYVYAGIYEHEIERVELSNMQETQTKIYINIGNPEKAFGFSQLPNHGVGLARMEMIILNQIKAHPLALVDLHHKKSVKEKNEIENLMAGYANPKDFFVKKIAEGIGMISAAFYPKPVIVRTSDFKSNEYMRMLGGSSYEPNEENPMLGYRGASRYYSESYNEAFSWECEALALVREEMGLTNMKVMIPFLRTIEEGKKVLEILRKNNLESGKNGLEIYIMCELPVNVILADDFLSLFDGFSIGSNDLTQLTLGVDRDSELVSHVFDERNEAMLKMFKKAIEACKRHNKYCGICGQAPSDYPEVTEFLVKEGITSISLNPDSVIPTWNAVAKLEKELKEHGLTEH	failed
MKRSSLLVRMVISIFLVFLILLALVGTFYYQSSSSAIEATIEGNSQTTISQTSHFIQSYIKKLETTSTGLTQQTDVLAYAENPSQDKVEGIRDLFLTILKSDKDLKTVVLVTKSGQVISTDDSVQMKTSSDMMAEDWYQKAIHQGAMPVLTPARKSDSQWVISVTQELVDAKGANLGVLRLDISYETLEAYLNQLQLGQQGFAFIINENHEFVYHPQHTVYSSSSKMEAMKPYIDTGQGYTPGHKSYVSQEKIAGTDWTVLGVSSLEKLDQVRSQLLWTLLGASVTSLLVCLCLVWFSLKRWIAPLKDLRETMLEIASGAQNLRAKEVGAYELREVTRQFNAMLDQIDQLMVAIRSQEETTRQYQLQALSSQINPHFLYNTLDTIIWMAEFHDSQRVVQVTKSLATYFRLALNQGKDLICLSDEINHVRQYLFIQKQRYGDKLEYEINENVAFDNLVLPKLVLQPLVENALYHGIKEKEGQGHIKLSVQKQDSGLVIRIEDDGVGFQDAGDSSQSQLKRGGVGLQNVDQRLKLHFGANYHMKIDSRPQKGTKVEIYINRIETS	failed
MEKNLLRSALKIFEKKDLSLLAYSGRSIFESKDSGLKPVVELFKRFDNLEGSLVIDKMVGKAAASFLLKMKPDHIHAKVISKPALKLMNEYGQSFSYDEKIPFVLGKDGKSMCPFEKLVLEMDDPEEIIRIVLSKFTSL	not failed
SAPFDVIGPQEPILAVVGEDAELPCRLSPNVSAKGMELRWFREKVSPAVFVSREGQEQEGEEMAEYRGRVSLVEDHIAEGSVAVRIQEVKASDDGEYRCFFRQDENYEEAIVHLKVAA	failed
MNNLNFTVIIPLFNKAEHILRTLQSVEWQKYPAAEIIVIDDGSTDEGPALVEKANIKNVKLVHQENQGVSAARNNGVALASHEYVAFLDADDEWLPLFLDEVARLIVKFPQAQFFGTRYQIVEPENNYCDAKIKLENINPEGVILDNYFDIASQGDLPFTMSSMVIERSLFQSIGGFPLNEPIGEDQDLFCRVALNTSIAYSPNIHSLYHKDAQNQASRINIPSTECGFSVRITKEARKDTKRKSAKYMLKYSATHLCHLAKLNIGNGHFSQARKLLSDPRCKLKPKHLIGLYGLSWIQQTSQWLANIIDYKQI	failed
REHNYPDTCFEHFVASSVAVYPVFELAAKSTGRIGQLLRSAVYESSAWQQGGNTHFGAFLLLIPLAMAAGEISREQGEQPGCGKTFFRIEAEEFENLASHAHAFVRETDCEDAVEFYRAFGHAGVRVNSVEEFDLEDPEATSDLRNQNITLYSLMEIAKGYDLIANEWTSGFGRCLEGAKIILDFMDARNCREEALAGGSVSICSGTGINEAVVYTFLKLLSKHRDTFIQTKFDAETADYVSSRAGEVLSGWEISGKKAGDFASILPRIQEFDSELLDKRINPGSTADIIIAALFIALLGGLR	failed
DSSMKTDVVEHDKDYVVTAELPGFKKDDIHVDYHDETLRISGKTEVNQSAKDDDGRILRQERRSQNVARSFYLPGIDLKNVKATYADGILTLTLPKQTEVDGSHEISID	failed
MHEWGLSEELKIQTKQMIEIAEKELSIMRNAIDKEDECILCKMEDIHHMLANVQTLAATYYIQAYLSPYTESSSFITTAIQHLSARKHGALIVVERNETLEALIQTGTTLNAHLTAPLLESIFYPGNPLHDGAVLVKNNHIVSAANILPLTKSTEVDPELGTRHRAAIGLSEKSDALILVVSEETGRTSFALNGILYTISL	not failed
MKHIHSYYSPNNLYNKIIEGLNNLGKDLSSVTPDDLQPVDEFHIRGDIATKELIELGNFTPDMHILDVGCGVGGSTRRLSHETGCHVTGIDLSDEYIDAAERLTQLLNMQARVKFNVGSALELPYADNTFDGAWSIQMNMNVEDKLGWLKEMYRVLKPGARAVLYEVCGHEEKTIYFPVPWAQDSSMSFLIPKEAFRDLIASTGFKIEVWNDKSDLAQKAFARMREPTGESTLPELGLHMLIGNDIKTKAYNMRRNLDDERISLIEILAIKPS	failed
MSLSASLGATRFRPDLLSLDDLDEAQLHALLTLAHQLKRGERVANLHGKVLGLVFLKASTRTRVSFTVAMYQLGGQVIDLSPSNTQVGRGEPVRDTARVLGRYVDGLAIRTFAQTELEEYAHYAGIPVINALTDHEHPCQVVADLLTIRENFGRLAGLKLAYVGDGNNVAHSLLLGCAKVGMSIAVATPEGFTPDPAVSARASEIAGRTGAEVQILRDPFEAARGAHILYTDVWTSMGQEAETQHRLQLFEQYQINAALLNCAAAEAIVLHCLPAHRGEEITDEVMEGPRSRIWDEAENRLHAQKAVLAALMGGREGHHHHHH	not failed
MCNAKDIYTAGWALVVMAGLVSLAIQVYLGYFRLDDMVKHLSRCRVIAIRMPLLGKDPLSRFFMLLCIGALFAMPHLFLRNGGLNVKDYRKFPLGLKWLINLFQFAALVAVIAFLVLWWVSRHL	failed
MDQTAEEKMVRERIRKKVNEVSSASQSLLSPVQDHINFTLQKAYFKCAYECFDRTRTHAEISRCAESCSVPITNAQNYFDNEMSVFQERLNRSLVVCQDKFEVAKQQKTRSEAVNDLEHCVNQTVDEAVKTLPNLVSRMKKALSITD	failed
MILQNKTFDLNPNDIAGLELVCQTLRNRILEVVSANGGHLSSSLGAVELIVGMHALFDCQKNPFIFDTSHQAYAHKLLTGRFESFSTLRQFKGLSGFTKPSESAYDYFIAGHSSTSVSIGVGVAKAFCLKQALGMPIALLGDGSISAGIFYEALNELGDRKYPMIMILNDNEMSISTPIGALSKALSQLMKGPFYQSFRSKVKKILSTLPESVNYLASRFEESFKLITPGVFFEELGINYIGPINGHDLSAIIETLKLAKELKEPVLIHAQTLKGKGYKIAEGRYEKWHGVGPFDLDTGLSKKSKSAILSPTEAYSNTLLELAKKDEKIVGVTAAMPSGTGLDKLIDAYPLRFFDVAIAEQHALTSSSAMAKEGFKPFVSIYSTFLQRAYDSIVHDACISSLPIKLAIDRAGIVGEDGETHQGLLDVSYLRSIPNMVIFAPRDNETLKNAVRFANEHDSSPCAFRYPRGSFALKEGVFEPSGFVLGQSELLKKEGEILLIGYGNGVGRAHLVQLALKEKNIECALLDLRFLKPLDPNLSAIVAPYQKLYVFSDNYKLGGVASAILEFLSEQNILKPVKSFEIIDEFIMHGNTALVEKSLGLDTESLTDAILKDLGQER	failed
VQTPALIIVTGHPATGKTTLSQALATGLRLPLLSKDAFKEVMFDGLGWSDREWSRRVGATAIMMLYHTAATILQSGQSLIMESNFRVDLDTERMQNLHTIAPFTPIQIRCVASGDVLVERILSRIAQGARHPGHCDDRSPADLELVRSRGDIPPLPLGGPLLTVDTTFPEQIDMNAIVQWVRQHLQSGTAFL	not failed
